Assay results as given in the RNAGym collection of RNA variant scans (doi:10.1073/pnas.2313332121).

B1: TPR t1 (parent)
chain: GACCAAUCUGCCCUCAGAGCUCGAGAACAUCUUCGGAUGCAGAGGAGGCAGGCUUCGGUGGCGCGAUAGCGCCAACGUCCUCAACCUCCAAUGCAUCCCACCACAUGAUGAUGCCUGAAGAGCCUUGGUUUUUUG

Variants of: B1
Assay: polymerase ribozyme fitness, log enrichment relative to wild type (log ratio); higher = more active; in vitro selection for triplet polymerase activity
Outline: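 Mutant libraries were PCR-built and transcribed for each subunit of a heterodimeric triplet polymerase ribozyme and selected for one round in triplicate at −7 °C, frozen, before gel excision of extended constructs and streptavidin-bead capture. Input and output libraries were Illumina-sequenced, keeping genotypes with ≥10 input reads and ≥1 read per output. Fitness is a logarithmic ratio of genotype to wild-type enrichment, in base 2, using inverse-variance-weighted replicate averages.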

First: C79A C80A C88A
Second: C70A C124A
The “polymerase ribozyme fitness (log ratio)” value of the first is lower: -5.16 for the first, -0.104 for the second.

Compared with C72A U92A A119G G127C, G117C G122U is lower in “polymerase ribozyme fitness (log ratio)” value: -1.04 for the first, -3.99 for the second.

First: A5G G61C C104A
Second: U7C G61A U81G U116G C124A
The “polymerase ribozyme fitness (log ratio)” value of the first is lower: -2.73 for the first, -2.26 for the second.

Going from C4A A18C C49U C85U C114G to C4U C76G C123A, the “polymerase ribozyme fitness (log ratio)” value rises from -5.25 to -0.394.

Compared with A6C C88G C115G, A50U C115A is higher in “polymerase ribozyme fitness (log ratio)” value: -4.52 for the first, -0.803 for the second.

Going from G36U G57A to A41U G113A C114U C115A G122U, the “polymerase ribozyme fitness (log ratio)” value falls from -2.09 to -5.49.

C13G G36U A37G C80U and C8A G51U C53G U81G C114A are within 0.2 log units of each other in “polymerase ribozyme fitness (log ratio)” value: -5.7 for the first, -5.79 for the second.

Going from G44U A84C A91C to A83C A84C, the “polymerase ribozyme fitness (log ratio)” value rises from -1.65 to -0.925.

First: C13U C70U U109A U132A
Second: A66U G93C C115U U116C
The “polymerase ribozyme fitness (log ratio)” value of the first is lower: -6.56 for the first, -5.96 for the second.

Going from C40A G47A G60A A75U C86U C97U C123A U132A to G69A G128C, the “polymerase ribozyme fitness (log ratio)” value falls from -1.57 to -5.29.

Compared with C31G C62U C114G G127U, C4U G48U U92G G113C is higher in “polymerase ribozyme fitness (log ratio)” value: -6.54 for the first, -3.72 for the second.

First: A41U C64U C94U U133G
Second: C70U U78A A95U U112G
The “polymerase ribozyme fitness (log ratio)” value of the first is higher: -1.82 for the first, -2.17 for the second.

First: A91C C114U G127A
Second: C20A C22A G69U U81G U96G A121U
The “polymerase ribozyme fitness (log ratio)” value of the first is higher: -4.1 for the first, -5.24 for the second.

First: G45U G69U
Second: U78C A111U
The “polymerase ribozyme fitness (log ratio)” value of the first is higher: -0.706 for the first, -2.5 for the second.

Compared with C40A C56U U87A, C20U U38G C72U C102U is lower in “polymerase ribozyme fitness (log ratio)” value: -1.61 for the first, -5.01 for the second.

C20U G42U C73U and G47U C53A C70U U126C are within 0.2 log units of each other in “polymerase ribozyme fitness (log ratio)” value: -2.41 for the first, -2.43 for the second.

First: A66U C73A C89U
Second: G52C C70A G110C
The “polymerase ribozyme fitness (log ratio)” value of the first is higher: -1.72 for the first, -6.64 for the second.

First: G44A C89U C123U C124U
Second: A26G C28G C70G C85U C98U G107U A119G G122A
The “polymerase ribozyme fitness (log ratio)” value of the first is higher: 1.33 for the first, -6.27 for the second.

First: G60A G110C
Second: C22G C80A C101U C124A
The “polymerase ribozyme fitness (log ratio)” value of the first is higher: -3.08 for the first, -3.81 for the second.

Compared with G42U C49U G61A, C13U A37U is higher in “polymerase ribozyme fitness (log ratio)” value: -1.64 for the first, 0.687 for the second.

Compared with G45A C76U C86G, G63U G120A is higher in “polymerase ribozyme fitness (log ratio)” value: -3.23 for the first, -0.542 for the second.

Compared with A24U G42U A43U C94G U112A U129A, G25U C80A C88U A121C is higher in “polymerase ribozyme fitness (log ratio)” value: -7.92 for the first, -6.51 for the second.

First: C49G G57A U109A
Second: A26U C40A
The “polymerase ribozyme fitness (log ratio)” value of the first is lower: -6.29 for the first, -4.26 for the second.

Going from G63C G117C A119U to G47C G61A, the “polymerase ribozyme fitness (log ratio)” value rises from -4.1 to -0.75.

Going from C8G A27U C104A U133A to C12G C20U C76A, the “polymerase ribozyme fitness (log ratio)” value rises from -3.65 to -1.37.

Going from G52C C79G to C72G U96A, the “polymerase ribozyme fitness (log ratio)” value falls from -0.316 to -2.18.

Going from A41G A46U G63A C82U U87G to C70U U109G, the “polymerase ribozyme fitness (log ratio)” value falls from -2.41 to -4.21.

First: C98U G117C
Second: A50U C114A
The “polymerase ribozyme fitness (log ratio)” value of the first is lower: -5.29 for the first, -3.11 for the second.

First: C8A C11A C82A G93A
Second: C8G C20U A68G G113C
The “polymerase ribozyme fitness (log ratio)” value of the first is higher: -0.542 for the first, -5.52 for the second.

First: U9C C13U C53A U87C A100U
Second: A46G C49U
The “polymerase ribozyme fitness (log ratio)” value of the first is higher: -0.242 for the first, -0.575 for the second.

First: A16U C20A C64U U87C U130C
Second: C11A U14A A18U U55C
The “polymerase ribozyme fitness (log ratio)” value of the first is higher: -4.77 for the first, -4.98 for the second.

Compared with C34U A50U, G44C U54A C82U C114G is lower in “polymerase ribozyme fitness (log ratio)” value: -3.8 for the first, -4.01 for the second.

Going from A6C C22U C62U C79U C99U to G48A G69C, the “polymerase ribozyme fitness (log ratio)” value rises from -5.96 to -1.33.

Compared with A43C C76U C98U G117U, C15U A18C is higher in “polymerase ribozyme fitness (log ratio)” value: -7.18 for the first, -3.52 for the second.

Going from G39C C114U to C31U G36U G60C C123U, the “polymerase ribozyme fitness (log ratio)” value falls from -1.75 to -5.45.

Compared with C4U G63U C124G, U9A C56G is lower in “polymerase ribozyme fitness (log ratio)” value: 0.825 for the first, -0.125 for the second.

First: U106G C123U G127A
Second: C8A G47U U78G U81G
The “polymerase ribozyme fitness (log ratio)” value of the first is higher: -3.09 for the first, -4.17 for the second.

First: G10U A100U
Second: A37G C70G
The “polymerase ribozyme fitness (log ratio)” value of the first is higher: -1.18 for the first, -3.43 for the second.

Going from C8U A43C C94U U130A to C12G C53A C73G G107C U112C, the “polymerase ribozyme fitness (log ratio)” value falls from -2.21 to -3.66.

Going from G47U G61A C85A to C11G C13G A50C G110C, the “polymerase ribozyme fitness (log ratio)” value falls from -1.18 to -5.28.

U92A C101A and A2U G60A A91G C124U are within 0.2 log units of each other in “polymerase ribozyme fitness (log ratio)” value: -3.47 for the first, -3.61 for the second.

First: A91U G120U
Second: C12G A18C C80U U112G
The “polymerase ribozyme fitness (log ratio)” value of the first is higher: -1.93 for the first, -3.95 for the second.
